This note sets out measurements from publication doi:10.1101/2022.03.03.481873v1.

Substitutions are numbered along the chain they refer to. Names may count otherwise.

What all share (assay): purified protein
Data set [1] relates to O=C(O)CCC(=O)C1=CC=C[C@@H](O)[C@@H]1C(=O)O. The note with it: 50 mM Tris pH 8.0, 0.1 mM MnCl2, 25 °C, Amycolatopsis numbering.
Substrate in data set [2]: O=C(O)CCC(=O)C1=CC=C[C@@H](O)[C@@H]1C(=O)O
The note with it: 50 mM Tris pH 8.0, 0.1 mM MnCl2, 25 °C.

Substrate in data set [3]: O=C(O)CCC(=O)N[C@@H](C(=O)O)c1ccccc1
The settings on record: 200 mM Tris pH 8.0, 0.1 mM MnCl2, 25 °C.

Substrate in data set [4]: C[C@H](N)C(=O)N[C@@H](CCC(=O)O)C(=O)O
It is filed as biochemical, Escherichia coli. The settings on record: 50 mM Tris pH 8.0, 10 mM MgCl2, 25 °C.

Substrate in data set [5]: C[C@H](N)C(=O)N[C@@H](CCC(=O)O)C(=O)O
It is filed as biochemical, Bacillus subtilis. The settings on record: 50 mM Tris pH 8.0, 10 mM MgCl2, 25 °C.

As for “LiNSAR/OSBS (Listeria innocua Clip11262; R266Q)”, in data set [1], the Km came to 163 ± 15 µM and the kcat was 0.57 ± 0.02 s⁻¹.

B1: RcNSAR/OSBS (Roseiflexus castenholzii DSM 13941) (protein)
chain: MKIESITLHHIDMPLVAPFETSFGRETHRPCILIEMRADGLTGWGECVAGAGPWYAYETIGTAWHIISDFLAPMIVGQEITEPIGIVERFASVRGHPMARAAVEAAFWDLYAQARGVSLARLIGATRDRVTVGVSVGIELTLEAQLASIERFVAAGYARIKLKIKPGWDVAVVRAVRERWPDIALQVDANSAYTPDDAPIFRELDEMNLLLIEQPLHHDDIVDHARLQAQISTPICLDESIHSPEHARWALDIDACRVINIKIGRVGGLTAARQIHDLCAERGVPVWCGGMLETNVGRAVNLALAALPNFALPGDISASARYYHRDIAAPDFVLNDDSTITVPDTPGTGVAVLPERLRDVQVREVIIGKG
B1: the values for the Km in “purified protein [2]” and in “purified protein [3]” were 116 ± 15 µM and 900 ± 100 µM, respectively. Also, the kcat in “purified protein [2]” stood at 54.6 ± 2 s⁻¹; in the data set “purified protein [3]”, 12.7 ± 0.4 s⁻¹.

B2: EcDE (Escherichia coli K-12) (protein)
chain: MRTVKVFEEAWPLHTPFVIARGSRSEARVVVVELEEEGIKGTGECTPYPRYGESDASVMAQIMSVVPQLEKGLTREELQKILPAGAARNALDCALWDLAARRQQQSLADLIGITLPETVITAQTVVIGTPDQMANSASTLWQAGAKLLKVKLDNHLISERMVAIRTAVPDATLIVDANESWRAEGLAARCQLLADLGVAMLEQPLPAQDDAALENFIHPLPICADESCHTRSNLKALKGRYEMVNIKLDKTGGLTEALALATEARAQGFSLMLGCMLCTSRAISAALPLVPQVSFADLDGPTWLAVDVEPALQFTTGELHL
For the molecule B2, in “purified protein [4]”, the Km came out at 340 ± 60 µM and the kcat turned out to be 11.4 ± 0.7 s⁻¹.

B3: EfNSAR/OSBS (Enterococcus faecalis V583) (protein)
chain: MNIQSIETYQVRLPLKTPFVTSYGRLEEKAFDLFVITDEQGNQGFGELVAFEQPDYVQETLVTERFIIQQHLIPLLLTEAIEQPQEVSTIFEEVKGHWMGKAALETAIWDLYAKRQQKSLTEFFGPTRRKIPVGISLGIQEDLPQLLKQVQLAVEKGYQRVKLKIRPGYDVEPVALIRQHFPNLPLMVDANSAYTLADLPQLQRLDHYQLAMIEQPFAADDFLDHAQLQRELKTRICLDENIRSLKDCQVALALGSCRSINLKIPRVGGIHEALKIAAFCQENDLLVWLGGMFESGVGRALNLQFASQPTFSFPGDISATERYFYEDIITEPFILEQGTMTVPQGLGIGVTLSQTNLLKYSQYQKIM
Turning to B3, in the data set “purified protein [2]”, the Km came out at 17 ± 3 µM and the kcat was 160 ± 7 s⁻¹. For the same molecule, in the data set “purified protein [3]”, the Km amounted to 1500 ± 150 µM and the kcat was determined as 34 ± 1 s⁻¹.

B4: LiNSAR/OSBS (Listeria innocua Clip11262) (protein)
chain: MYFQKARLIHAELPLLAPFKTSYGELKSKDFYIIELINEEGIHGYGELEAFPLPDYTEETLSSAILIIKEQLLPLLAQRKIRKPEEIQELFSWIQGNEMAKAAVELAVWDAFAKMEKRSLAKMIGATKESIKVGVSIGLQQNVETLLQLVNQYVDQGYERVKLKIAPNKDIQFVEAVRKSFPKLSLMADANSAYNREDFLLLKELDQYDLEMIEQPFGTKDFVDHAWLQKQLKTRICLDENIRSVKDVEQAHSIGSCRAINLKLARVGGMSSALKIAEYCALNEILVWCGGMLEAGVGRAHNIALAARNEFVFPGDISASNRFFAEDIVTPAFELNQGRLKVPTNEGIGVTLDLKVLKKYTKSTEEILLNKGWS
In the case of B4, in “purified protein [2]”, the Km came out at 155 ± 16 µM and the kcat amounted to 216 ± 7 s⁻¹. Moreover, in the data set “purified protein [3]”, the Michaelis constant (Km) came out at 1000 ± 270 µM and the kcat is 3.74 ± 0.5 s⁻¹.

B5: BsDE (Bacillus subtilis subsp. subtilis str. 168; K271Q) (protein)
chain: MKIIRIETSRIAVPLTKPFKTALRTVYTAESVIVRITYDSGAVGWGEAPPTLVITGDSMDSIESAIHHVLKPALLGKSLAGYEAILHDIQHLLTGNMSAKAAVEMALYDGWAQMCGLPLYQMLGGYRDTLETDYTVSVNSPEEMAADAENYLKQGFQTLKIKVGKDDIATDIARIQEIRKRVGSAVKLRLDANQGWRPKEAVTAIRKMEDAGLGIELVEQPVHKDDLAGLKKVTDATDTPIMADESVFTPRQAFEVLQTRSADLINIKLMQAGGISGAEKINAMAEACGVECMVGSMIETKLGITAAAHFAASKRNITRFDFDAPLMLKTDVFNGGITYSGSTISMPGKPGLGIIGAALLKGEKEQ
For the molecule B5, in the data set “purified protein [5]”, the Km worked out at 508 ± 165 µM and the kcat worked out at 0.23 ± 0.03 s⁻¹.

B6: BsDE (Bacillus subtilis subsp. subtilis str. 168) (protein)
chain: B5 chain with Q271K
As for B6, in the data set “purified protein [5]”, the Km is 452 ± 120 µM and the kcat amounted to 21.4 ± 2 s⁻¹.

By Km is commonly meant the substrate concentration at which the rate is half of its maximum. What is called kcat is the number of substrate molecules converted per active site and unit of time at saturation.
